Reference: PMC8340551 (The Journal of Cell Biology, 2021)

Target: T1, FHL2-Flag (UniProt Q14192 1-279)
T1 sequence (looked up): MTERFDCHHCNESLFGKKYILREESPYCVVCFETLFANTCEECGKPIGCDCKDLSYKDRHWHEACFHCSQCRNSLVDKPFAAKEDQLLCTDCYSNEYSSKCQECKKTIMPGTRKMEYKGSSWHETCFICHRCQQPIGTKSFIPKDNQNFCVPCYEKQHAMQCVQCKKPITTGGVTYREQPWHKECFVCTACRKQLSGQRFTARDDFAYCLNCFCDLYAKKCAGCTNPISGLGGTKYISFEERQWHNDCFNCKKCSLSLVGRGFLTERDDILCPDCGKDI
Test: co-IP

fold more co-precipitated with OGT overexpression than with OGA overexpression: 5 fold
B1: Myc-TRAK1 (Myc-TRAK1^WT) (natural protein, UniProt Q9UPV9 1-953, looked up)
chain: MALVFQFGQPVRAQPLPGLCHGKLIRTNACDVCNSTDLPEVEIISLLEEQLPHYKLRADTIYGYDHDDWLHTPLISPDANIDLTTEQIEETLKYFLLCAERVGQMTKTYNDIDAVTRLLEEKERDLELAARIGQSLLKKNKTLTERNELLEEQVEHIREEVSQLRHELSMKDELLQFYTSAAEESEPESVCSTPLKRNESSSSVQNYFHLDSLQKKLKDLEEENVVLRSEASQLKTETITYEEKEQQLVNDCVKELRDANVQIASISEELAKKTEDAARQQEEITHLLSQIVDLQKKAKACAVENEELVQHLGAAKDAQRQLTAELRELEDKYAECMEMLHEAQEELKNLRNKTMPNTTSRRYHSLGLFPMDSLAAEIEGTMRKELQLEEAESPDITHQKRVFETVRNINQVVKQRSLTPSPMNIPGSNQSSAMNSLLSSCVSTPRSSFYGSDIGNVVLDNKTNSIILETEAADLGNDERSKKPGTPGTPGSHDLETALRRLSLRRENYLSERRFFEEEQERKLQELAEKGELRSGSLTPTESIMSLGTHSRFSEFTGFSGMSFSSRSYLPEKLQIVKPLEGSATLHHWQQLAQPHLGGILDPRPGVVTKGFRTLDVDLDEVYCLNDFEEDDTGDHISLPRLATSTPVQHPETSAHHPGKCMSQTNSTFTFTTCRILHPSDELTRVTPSLNSAPTPACGSTSHLKSTPVATPCTPRRLSLAESFTNTRESTTTMSTSLGLVWLLKERGISAAVYDPQSWDRAGRGSLLHSYTPKMAVIPSTPPNSPMQTPTSSPPSFEFKCTSPPYDNFLASKPASSILREVREKNVRSSESQTDVSVSNLNLVDKVRRFGVAKVVNSGRAHVPTLTEEQGPLLCGPPGPAPALVPRGLVPEGLPLRCPTVTSAIGGLQLNSGIRRNRSFPTMVGSSMQMKAPVTLTSGILMGAKLSKQTSLR
modifications: O-GlcNAc on serine and threonine residues (sites not given), more with co-expressed OGT, less with co-expressed OGA
